From patent US20140314667A1 (Amgen, published 2014)
Positions count from the first letter of the chain named. Values joined by “and” are separate entries in the source; they are usually repeats but may differ in a detail not shown here. Identical values can stand only once.

B1: SC-EGFRvIII-XG1-211 (antibody, IgG1, V domains shown)
VH: QVQLVESGGGVVQPGRSLRLSCVASGFTLSSYGMHWVRQAPGKGLEWVAVTSYDGSKKDYADSAKGRFTISRDNSKNTLYLQMNSLRAEDTAVYYCVSEGYCSSSSCYKYYYYGMDVWGQGTTVTVSS
VL: DIVMTQSPLSLPVTPGEPASISCRSSQSLLYRNGNNYLDWYLQRPGQSPQLLIYLGSNRASGVPDRFSGSGSGTDFTLKISRVEAEDVGVYYCMQALQTPRTFGQGTKVEIK
notes: Recombinant IgG1 kappa; also called sc211; SC211
B2: SC-EGFRvIII-XG2-170 (antibody, IgG1, V domains shown)
VH: QVQLQQSGPGLVKPSQTLSLTCAISGDSVSSNNAAWNWIRQSPARGLEWLGRTYYRSKWYNDYVVSVKSRITINPDTSKNQFSLQLNSVTPEDTAVYYCVRATAFDYWGQGTLVTVSS
VL: AIVLTQTPLSSPVTLGQPASISCRSSQSLVHRDGNTYLSWLQQRPGQPPRLLIYKISNRFSGVPDRFSGSGAGTDFTLKISRVEPDDVGVYYCMHTTQLPWTFGQGTKVEIK
notes: kappa light chain; also called sc170; SC170
B3: antibody 095 (antibody, IgG1, V domains shown)
VH: QVQLQESGPFLVKPSQTLSLTCTVSGGSISSGGYYWSWIRQHPGKGLEWIGFIYYRGNTYYNPSLKSRVTISVDTSKNQFSLKLSSVTAADTAVYYCARDGYCSRTGCYGGWFDPWGQGTLVTVSP
VL: DIVMTQTPLSSPVTLGQPASISCRSSQSLIHTDGNIYLSWLQQRPGQPPRLLIYKISNRFSGVPDRFSGSGAGTDFTLKISRVEAEDVGVYYCMQGTQFPITFGQGTRLEIK
notes: Recombinant IgG1 kappa; also called sc95; SC95
B4: SC-EGFRvIII-XG2-150 (antibody, IgG1, V domains shown)
VH: QVQLQQSGPGLVKPSQTLSLTCAISGDSVSSYSSAWNWIRQSPSRGLEWLGRAYHRSRWYYEYAVSVKSRINITPDTSKNQFSLQLNSVTPEDTAVYYCARGSRFDYWGQGTLVTVSS
VL: B2 VL with A1D, L4M, P85A, D86E, V90I, Y92F, L99F, K108R
notes: kappa light chain; also called sc150; SC150
B5: SC-EGFRvIII-XG1-139 (antibody, IgG1, V domains shown)
VH: EVQVLESGGGLVQPGGSLRLSCAASGFTFSSYAMSWVRQAPGKGLEWVSAISGSGGSTNYADSVKGRFTISRDNSKNTLYLQMNSLRAEDTAVYYCAGSSGWSEYWGQGTLVTVSS
VL: DIQMTQSPSSLSASVGDRVTITCRASQGIRNNLAWYQQKPGKAPKRLIYAASNLQSGVPSRFTGSGSGTEFTLIVSSLQPEDFATYYCLQHHSYPLTSGGGTKVEIK
notes: Recombinant IgG1 kappa; also called sc139; SC139
B6: SC-EGFRvIII-XG1-250 (antibody, IgG1, V domains shown)
VH: B5 VH with V2G, V4L, L11W, G16E, M83V, A88V
VL: DIQMTQSPSSLSASVGDSVTITCRTSQGIRKNLGWYQQKPGKAPKRLIYAASSLQSGVPSRFSGSGSGTEFTLTISRLQPEDFATYYCLQHHSYPLTFGGGTRVEIR
notes: Recombinant IgG1 kappa; also called sc250; SC250
B7: antibody 13.1.2 (antibody, V domains shown)
VH: QVQLVESGGGVVQPGRSLRLSCAASGFTFSSYGMHWVRQAPGKGLEWVAVIWYDGSNKYYVDSVKGRFTISRDNSKNTLYLQMNSLRAEDTAVYYCARDGWQQLAPFDYWGQGTLVTVSS
VL: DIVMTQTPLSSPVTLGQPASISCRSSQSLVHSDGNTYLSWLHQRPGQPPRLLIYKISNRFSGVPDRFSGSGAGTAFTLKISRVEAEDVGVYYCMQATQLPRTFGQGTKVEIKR
B8: Ab 131-DM1 conjugate (antibody, V domains shown)
VH: QVQLVESGGGVVQSGRSLRLSCAASGFTFRNYGMHWVRQAPGKGLEWVAVIWYDGSDKYYADSVRGRFTISRDNSKNTLYLQMNSLRAEDTAVYYCARDGYDILTGNPRDFDYWGQGTLVTVSS
VL: DTVMTQTPLSSHVTLGQPASISCRSSQSLVHSDGNTYLSWLQQRPGQPPRLLIYRISRRFSGVPDRFSGSGAGTDFTLEISRVEAEDVGVYYCMQSTHVPRTFGQGTKVEIK
modifications: DM1 linked through SMCC (MCC) to amine groups of the antibody, 3.0-3.5 DM1 molecules per antibody; sites not stated
B9: SC-EGFRvIII-XG1-318 (antibody, IgG1, V domains shown)
VH: B1 VH with A64V, S103D
VL: B1 VL
notes: Recombinant IgG1 kappa; also called mAb ID 141A10
B10: SC-EGFRvIII-XG1-123/124 (antibody, IgG1, V domains shown)
VH: B1 VH with V23A, T51M, K58E, A64V, K76E, S105R
VL: B1 VL with R44K, K79N, V90H
notes: Recombinant IgG1 kappa; also called mAb ID 129A7
B11: SC-EGFRvIII-XG1-342 (antibody, IgG1, V domains shown)
VH: B1 VH with A64V, S103D, S105T
VL: B1 VL
notes: Recombinant IgG1 kappa; also called mAb ID 124D4
B12: SC-EGFRvIII-XG1-333 (antibody, IgG1, V domains shown)
VH: B1 VH with P41L, A64V, S103D, S105T
VL: B1 VL
notes: Recombinant IgG1 kappa; also called mAb ID 132D8
B13: anti-EGFRvIII antibody 131 (antibody, human IgG1, V domains shown)
VH: B8 VH
VL: B8 VL
notes: Recombinant human IgG1 kappa; also called sc131

These binders were tested against T1, EGFRvIII, full length, expressed on cells (human, UniProt P00533 25-1210) (assay: FACS on NR6 M cells, antibody at 0.25 ug/ml, no glutathione).
T1 construct: whole, on cells; the deletion has to be applied (the numbers count on the mature protein); also called native EGFRvIII; NR6 M cells
Experimental: XenoMax derived IgG1 recombinant antibodies were expressed, purified and quantitated as described previously. Antibodies were further assayed for their ability to internalize the EGFRvIII receptor in NR6 M cells. […] The cells were washed with cold 10% FCS in PBS and secondary antibody (SS Alexa antihuman IgG Fab) at 3 μg/ml Fab was added and incubated for 7 mins on ice. The cells were washed with cold 10% FCS in PBS once and then resuspended in cold media. Next, two sets of the triplicate were incubated at 37° C. and the remaining set was incubated at 4° C. for 1 hr. After that the cells incubated at 4° C. and one set of the cells incubated at 37° C. were treated with glutathione (as previously mentioned) for 1 hr on ice. Then the cells were washed and resuspended in 100 μl of cold 1% FCS in PBS and analyzed by FACS. The % internalization was calculated from the geometric mean obtained from the FACS analysis [(mean at 37° C. with glutathione−mean at 4° C. with glutathione)/(mean at 37° C. without glutathione−mean at 4 C with glutathione)].

Binder | FACS Geometric mean, without glutathione 37 C
B1 | 20.8 geometric mean
B2 | 20 geometric mean
B3 | 22.6 geometric mean
B4 | 20.3 geometric mean
B5 | 22.6 geometric mean
B6 | 24.1 geometric mean
B7 | 22.1 geometric mean

The binders below were run against T1, EGFRvIII, full length, expressed on … (assay: cell-based or functional assay).

Binder | IC50 of cell growth inhibition (CellTiter-Glo, U251vIII cells)
B8 | 0.068 nM DM1 equivalents and 3 ng/mL

Biological target: T1, EGFRvIII, full length, expressed on …
Test: cell-based or functional assay
Remark: another data set of the same source

Binder | % internalization
B1 | 21.6%
B2 | 20.1%
B3 | 72.4%
B4 | 20%
B5 | 80.8%
B6 | 16.7%
B7 | 82.5%

These binders were tested against T2, EGFRvIII-Rabbit Fc fusion protein (human; rabbit, UniProt P00533 25-645) (assay: ELISA, recombinant antibody supernatant on coated EGFRvIII-RbFc, 1.5 ug/ml).
T2 construct: Made in 293F cells; also called EGFRvIII-RbFc; EGFRvIII-Rab Ig Fc fusion protein; not shown: Hinge-CH2-CH3 domain of rabbit IgG (721 bp fragment)
Experimental: The secretion ELISA tests were performed as follows. For Ab secretion, 2 μg/mL of Goat anti-human IgG H+L and for antigen binding, 1.5 μg/ml of EGFRvIII-Rab Ig Fc fusion protein was coated onto Costar Labcoat Universal Binding Polystyrene 96 well plates and held overnight at four degrees. The plates were washed five times with dH₂O. Recombinant antibodies were titrated 1:2 for 7 wells from the undiluted minilipofection supernatant. The plates were washed five times with dH₂O. A goat anti-human IgG Fc-specific HRP-conjugated antibody was added at a final concentration of 1 μg/mL for 1 hour at RT for the secretion plates and binding plates detected with 1 μg/ml Rb anti Hu Fc for 1 hour at room temperature. The plates were washed five times with dH₂O. The plates were developed with the addition of TMB for 30 minutes and the ELISA was stopped by the addition of 1 M phosphoric acid. Each ELISA plate was analyzed to determine the optical density of each well at 450 nm.

Binder | Titer, antigen binding
B9 | 64 titer (1:x dilution of supernatant)
B10 | > 64 titer (1:x dilution of supernatant)
B1 | > 64 titer (1:x dilution of supernatant)
B11 | > 64 titer (1:x dilution of supernatant)
B12 | > 64 titer (1:x dilution of supernatant)
B2 | > 64 titer (1:x dilution of supernatant)
B13 | > 64 titer (1:x dilution of supernatant)
B4 | > 64 titer (1:x dilution of supernatant)
B5 | > 64 titer (1:x dilution of supernatant)
B6 | > 64 titer (1:x dilution of supernatant)
